Results on 22 molecules are retold here after patent US20260258115A1 (MAPP BIOPHARMACEUTICAL, published 2026).

Assay [1] has as its target T1, RSV postfusion F (postF), subtype A (respiratory syncytial virus subtype A, UniProt P03420 26-513).
T1 construct: also called Postfusion subtype A; F deltaFP
The assay is described as follows: BLI.

Assay [2] has as its target T2, RSV prefusion F (preF), subtype B (respiratory syncytial virus subtype B).
T2 construct: also called Prefusion subtype B
As to the kind of experiment: BLI, IgG. A general note: BLI is a label-free optical method that tracks binding on a fibre tip over time.

B1: ADI-25542 (antibody, V domains shown)
VH: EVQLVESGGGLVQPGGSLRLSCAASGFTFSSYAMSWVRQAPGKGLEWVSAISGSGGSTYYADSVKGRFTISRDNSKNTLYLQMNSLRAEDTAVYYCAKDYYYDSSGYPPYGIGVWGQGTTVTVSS
VL: QTVVTQEPSFSVSPGGTVTLTCGLSSGSVSTSYYPSWYQQTPGQAPRTLIYSTNTRSSGVPDRFSGSILGNKAALTITGAQADDESDYYCVLYMGSGIWVFGGGTKVTVL
notes: full-length IgG
Regarding B1, the binding result in assay [1] is given as “no binding”.

B2: ADI-24795 (antibody, V domains shown)
VH: EVQLVESGGGLVKPGGSLRLSCAASGFTFSSYSMNWVRQAPGKGLEWVSSISSSSSYIYYADSVKGRFTISRDNAKNSLYLQMNSLRAEDTAVYYCARVGYSSSSGAFDYWGQGTLVTVSS
VL: QSVLTQPPSVSGAPGQRVTISCTGSSSNIGAGYDVHWYQQLPGTAPKLLIYGNSNRPSGVPDRFSGSKSGTSASLAITGLQAEDEADYYCQSYDSSLSGSVFGGGTKVTVL
notes: full-length IgG; also called Ab 363
Turning to B2, the binding result in assay [1] is on record as “no binding”. For the same molecule, binding in assay [2] was characterised by a dissociation constant (Kd) of 34.2 nM.

B3: ADI-22758 (antibody, V domains shown)
VH: QVQLVESGGGLVKPGGSLRLSCAASGFSISSYSMNWVRQAPGKGLEWVSSISGSSSYIYYGDSVKGRFTISRDNARNSLYLQMNSLRAEDTAVYYCARGDIAAAGTITYYFAHWGQGTLVTVSS
VL: QSVLTQPPSVSGAPGQRVTISCTGSSSNIGAGYDVHWYQQLTGTAPKLLIFGNNNRPSGVPDRFSGSKSGTSASLAITGLQAEDEADYYCQSYDSSLSGAVFGGGTQLTVL
notes: full-length IgG
For the molecule B3, the binding result in assay [1] is reported as “no binding”.

B4: ADI-19440 (antibody, V domains shown)
VH: EVQLVESGGGLVQPGGSLRLSCAASGFTFSSYSMNWVRQAPGKGLEWVSYISSSSSTIYYADSVKGRFTISRDNAKNSLYLQMNSLRAEDTAVYYCAREGYSGSYGYYFDYWGQGTLVTVSS
VL: QSVLTQPPSVSGAPGQRVTISCTGSSSNIGAGYDVHWYQQLPGTAPKLLIYGNSNRPSGVPDRFSGSKSGTSASLAITGLQAEDEADYYCQSYDSSLSGSVFGTGTKLTVL
notes: full-length IgG
B4: the binding result in assay [1] was “no binding”. For the same molecule, in assay [2], the Kd (in general, the equilibrium constant for the complex coming apart) amounted to 14.3 nM.

B5: ADI-24800 (antibody, V domains shown)
VH: EVQLLESGGGLVKPGGSLRLSCAASGFTFSSYSMNWVRQAPGKGLEWVSSISSSSSYIYYADSVKGRFTISRDNAKNSLYLQMNSLRAEDTAVYYCARVRGGYSYGYGMDVWGQGTTVTVSS
VL: QSVVTQPPSVSGAPGQRVTISCTGSSSNIGAGFDVHWYQQLPGTAPKLLIYGNSNRPSGVPDQFSGSKSGTSASLAITGLQAEDEADYYCQSYDSSLSGVVFGGGTKLTVL
notes: full-length IgG
Consider B5, for which the binding result in assay [1] is on record as “no binding”. The Kd in assay [2] came out at 51.4 nM.

B6: ADI-19502 (antibody, V domains shown)
VH: EVQLVESGGGVVQPGGSLRLSCAASGFTFSSDGMHWVRQAPGKGLEWVAFIQYDGTNKYYVDSVKGRFTISRDNSKNTLYLQMNSLRAEDTAVYYCAKDQGFRYSSSWYAFDIWGQGTMVTVSS
VL: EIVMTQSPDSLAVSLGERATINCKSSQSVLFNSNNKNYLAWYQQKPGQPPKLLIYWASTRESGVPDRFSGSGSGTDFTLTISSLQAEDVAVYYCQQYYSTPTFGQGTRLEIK
notes: full-length IgG
Turning to B6, in assay [1], the binding result was “no binding”.

B7: ADI-22769 (antibody, V domains shown)
VH: QVQLVQSGGGLVQPGGSLRLSCAASGFTFSDHYMDWVRQAPGKGLEWVGRTRNKANSYTTEYAASVKGRFTISRDDSKNSLYLQMNSLKTEDTAVYYCARVGYYYYYGMDVWGQGTTVTVSS
VL: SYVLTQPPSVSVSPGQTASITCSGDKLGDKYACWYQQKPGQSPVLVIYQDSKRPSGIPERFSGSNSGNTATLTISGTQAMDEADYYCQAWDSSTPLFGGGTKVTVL
notes: full-length IgG
As to B7, the binding result in assay [1] is given as “no binding”.

B8: ADI-25556 (antibody, V domains shown)
VH: QVQLVQSGGGLVKPGGSLRLSCAASGFTFSSYSMNWVRQAPGKGLEWVSSISSSSSYIYYADSVKGRFTISRDNAKNSLYLQMNSLRAEDTAVYYCARQRGGIAVAGTYFDLWGRGTLVTVSS
VL: QSVLTQPPSVSGAPGQRVTISCTGSSSNIGAGYDVHWYQQLPGTAPKLLIYGNSNRPSGVPDRFSGSKSGTSASLAITGLQAEDEADYYCQSYDSTVVFGGGTKVTVL
notes: full-length IgG; also called Ab 450
For B8, in assay [1], the binding result was “no binding”. The molecule also showed a Kd in assay [2] of 42 nM.

B9: ADI-25468 (antibody, V domains shown)
VH: QVQLVQSGAEVKKPGESLKISCKGSGYSFTSYWIGWVRQMPGKGLEWMGIIYPGDSDTRYSPSFQGQVTISADKSISTAYLQWSSLKASDTAMYYCARHVGQVYCSSTSCYTSREYYFDYWGQGTLVTVSS
VL: not shown
notes: full-length IgG
Turning to B9, the binding result in assay [1] is “no binding”.

B10: ADI-19492 (antibody, V domains shown)
VH: QVQLVQSGAEVKKPGESLKISCKGSGYRFTSYWIGWVRQMPGKGLEWMGIIYPGDSDTRYSPSFQGQVTISADKSISTAYLQWSSLKASDTAMYYCARSGSHYAFDLWGQGTMVTVSS
VL: NFMLTQPHSVSESPGKTVTISCTRSSGNIASNYVQWYQQRPGSSPTTVLYEDNQRPSGVPDRFSGSIDSSSNSASLTISGLKTEDEADYYCQSYDSSNPWVFGGGTKLTVL
notes: full-length IgG
For the molecule B10, in assay [1], the binding result was “no binding”.

B11: ADI-19499 (antibody, V domains shown)
VH: EVQLLESGPGLVKPSETLSLTCTVSGGSISSSSYYWGWIRQPPGKGLEWIGSIYYSGSTYYNPSLKSRVTISVDTSKNQFSLKLSSVTAADTAVYYCAVLLYSSSSFDYWGQGTLVTVSS
VL: NFMLTQPHSVSESPGKTVTISCTRSSGSIASNYVQWYQQRPGSSPTTVIYEDNQRPSGVPDRFSGSIDSSSNSASLTISGLKTEDEADYYCQSYDSSNQAVFGGGTQLTVL
notes: full-length IgG; also called Ab 201
Take B11: the binding result in assay [1] is “no binding”.

B12: ADI-19500 (antibody, V domains shown)
VH: EVQLVESGGGLVQPGGSLRLSCAASGFTFSSYSMNWVRQAPGKGLEWVSYISSSSSTIYYADSVKGRFTISRDNAKNSLYLQMNSLRAEDTAVYYCARGNTVTTFLDYWGQGTLVTVSS
VL: DIRLTQSPSSFSASTGDRVTITCRASQGISSYLAWYQQKPGKAPKLLIYAASTLQSGVPSRFSGSGSGTDFTLTISCLQSEDFATYYCQQYYSYPPLTFGGGTKVDIK
notes: full-length IgG
As to B12, the binding result in assay [1] was “no binding”.

B13: ADI-19491 (antibody, V domains shown)
VH: QVQLVQSGPTLVKPTQTLTLTCTFSGFSLSTSGVGVGWIRQPPGKALEWLALIYWDDDKRYSPSLKSRLTITKDTSKNQVVLTMTNMDPVDTATYYCAHRRATTVTTGYFDYWGQGTLVTVSS
VL: QSVLTQPPSVSGAPGQRVTISCTGSSSNIGAGYDVHWYQQLPGTAPKLLIYGNSNRPSGVPDRFSGSKSGTSASLAITGLQAEDEADYYCQSYDSSLSGHYVFGTGTKVTVL
notes: full-length IgG
Take B13: in assay [1], the binding result is on record as “no binding”.

B14: ADI-19496 (antibody, V domains shown)
VH: EVQLVESGGGVVQPGGSLRLSCAASGFTFSSYGMHWVRQAPGKGLEWVAFIRYDGSNKYYADSVKGRFTISRDNSKSTLYLQMNSLRAEDTAVYYCAKDATFGYSSSWYNFDYWGQGTLVTVSS
VL: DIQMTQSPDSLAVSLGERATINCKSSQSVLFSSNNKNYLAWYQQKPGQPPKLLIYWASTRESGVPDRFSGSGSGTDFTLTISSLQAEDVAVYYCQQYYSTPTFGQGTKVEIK
notes: full-length IgG; also called Ab 198
As to B14, the binding result in assay [1] is listed as “no binding”.

B15: ADI-19495 (antibody, V domains shown)
VH: QVQLQESGPGLVKPSETLSLTCTVSGGSISSYYWSWIRQPPGKGLEWIGYIYTSGSTNYNPSLKSRVTISVDTSKNQFSLKLSSVTAADTAVYYCARVGSYYDLQHWGQGTLVTVSS
VL: DIQLTQSPSSVSASVGDRVTITCRASQGISSWLAWYQQKPGKAPKLLIYAASSLQSGVPSRFSGSGSGTDFTLTISSLQPEDFATYYCQQANSFPLTFGGGTKVEIK
Turning to B15, the binding result in assay [1] is “no binding”.

B16: ADI-25598 (antibody, V domains shown)
VH: QVQLQESGPGLVKPSETLSLTCTVSPPSISSSSYYWGWIRQPPGKGLEWIGSIYYSGSTYYNPSLKSRVTISVDTSKNQFSLKLSSVTAADTAVYYCARPDSSGAFDIWGQGTMVTVSS
VL: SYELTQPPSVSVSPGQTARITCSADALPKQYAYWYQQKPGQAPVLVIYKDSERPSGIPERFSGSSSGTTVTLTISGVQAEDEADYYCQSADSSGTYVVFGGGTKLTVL
notes: full-length IgG
For B16, the binding result in assay [1] is given as “no binding”.

B17: ADI-22776 (antibody, V domains shown)
VH: EVQLLESGGGLVKPGGSLRLSCAASGFTFSDYYMSWIRQAPGKGLEWVSYISSSGSTIYYADSVKGRFTISRDNAKNSLYLQMNSLRAEDTAVYYCAREIGGSYTGGAFDIWGQGTMVTVSS
VL: SYELTQPPSVSVAPGQTARITCGGNNIGSKSVHWYQQKPGQAPVLVVYDDSDRPSGIPERFSGSNSGNTATLTISRVEAGDEADYYCQVWDSSSDHVVFGGGTKVTVL
notes: full-length IgG
Regarding B17, the binding result in assay [1] is reported as “no binding”.

B18: ADI-24823 (antibody, V domains shown)
VH: EVQLLESGGGLVKPGGSLRLSCAASGFTFSSYSMNWVRQAPGKGLEWVSSISSSSSYIYYADSVKGRFTISRDNAKNSLYLQMNSLRAEDTAVYYCAREGDYYGSGRPFDYWGQGTLVTVSS
VL: QSVVTQPPSVSGAPGQRVTISCTGSSSNIGAGYDVHWYQQLPGTAPKLLIYGNSNRPSGVPDRFSGSKSGTSASLAITGLQAEDEADYYCQSYDSSLSVVFGGGTKLTVL
notes: full-length IgG
For the molecule B18, the binding result in assay [1] is recorded as “no binding”. The molecule also had a Kd in assay [2] of 6.03 nM.

B19: ADI-22765 (antibody, V domains shown)
VH: EVQLVESGGGLVKPGGSLRLSCAASGFTFSSYSMNWVRQAPGKGLEWVSSISSSSSYIYYADSVKGRFTISRDNAKNSLYLQMNSLRAEDTAVYYCARDRGDGYNYDYWGQGTLVTVSS
VL: QPVLTQPPSVSGAPGQRVTISCTGSSSNIGAGYDVHWYQQLPGTAPKLLIYGNSNRPSGVPDRFSGSKSGTSASLAITGLQAEDEADYYCQSYDSSLSVVFGGGTKVTVL
notes: full-length IgG
B19: the binding result in assay [1] was “no binding”.

B20: ADI-24845 (antibody, V domains shown)
VH: EVQLVESGGGLVKPGGSLRLSCAASGFTFSSYSMNWVRQAPGKGLEWVSSISSSSSYIYYADSVKGRFTISRDNAKNSLYLQMNSLRAEDTAVYYCARDYCSGGSCYLAAFDIWGQGTTVTVSS
VL: QPVLTQPASVSGSPGQSITISCTGTSSDVGGYNYVSWYQQHPGKAPKLMIYEVSNRPSGVSNRFSGSKSGNTASLTISGLQAEDEADYYCSSYTSSSTPVVFGGGTKLTVL
notes: full-length IgG
Regarding B20, the binding result in assay [1] was “no binding”. In assay [2], the equilibrium dissociation constant (Kd) was determined as 36.7 nM.

B21: ADI-25548 (antibody, V domains shown)
VH: EVQLVESGGGLIQPGGSLRLSCAASGFTVSSNYMSWVRQAPGKGLEWVSVIYSGGSTYYADSVKGRFTISRDNSKNTLYLQMNSLRAEDTAVYYCARGPQFGVSYSSGWYSFDYWGQGTLVTVSS
VL: QSVLIQPRSVSGSPGQSVTISCTGTSSDVGGYNYVSWYQQHPGKAPKLMIYDVSKRPSGVPDRFSGSKSGNTASLTISGLQAEDEADYYCCSYAGSYTFVVFGGGTKLTVL
notes: full-length IgG
Take B21: the binding result in assay [1] was “no binding”.

B22: ADI-24858 (antibody, V domains shown)
VH: EVQLLESGGGLVKPGGSLRLSCAASGFTFSSYSMNWVRQAPGKGLEWVSSISSSSSYIYYADSVKGRFTISRDNAKNSLYLQMNSLRAEDTAVYYCARGGYSYGYSFDYWGQGTLVTVSS
VL: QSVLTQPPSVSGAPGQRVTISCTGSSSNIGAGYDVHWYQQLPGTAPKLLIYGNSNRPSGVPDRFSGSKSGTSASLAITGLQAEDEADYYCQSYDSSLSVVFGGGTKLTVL
notes: full-length IgG
Regarding B22, the binding result in assay [1] is recorded as “no binding”. The molecule further yielded a Kd in assay [2] of 26.3 nM.
